Data published in publication PMC8585947, “Structure of Escherichia coli cytochrome bd-II type oxidase with bound aurachin D” (Nature Communications, 2021).

Biological target: Escherichia coli cytochrome bd-II type oxidase (hetero-trimer of AppC, AppB and AppX) (E. coli) (UniProt P26459)
Experiment: cryo-EM structure; bd-II in amphipol A8-35, 5.6 mg/mL, incubated with aurachin D; 20 mM MOPS, 20 mM NaCl, pH 7.0; C2 symmetry imposed; 3.0 Å

stoichiometry N: 2
Substance: Escherichia coli cytochrome bd-II type oxidase (hetero-trimer of AppC, AppB and AppX) (from UniProt P26459 1-514; P26458 1-378; P24244 1-30) (complex)
